Results as given in patent US11932672B2, “Fermentation process” (Syngulon S.A., priority 2017, dated 2024).
Entries after “also recorded” stand apart in the source; their conditions may differ.

Legend:
[1] = tested on: fungal microbial organism; conditions: cited from earlier work
Candida species = conditions: cited from earlier work
bacteriocin C7 = experiment: Resistance to C7 conferred by plasmid-expressed immunity gene (vector selection marker); format: cell-based; conditions: gene expressed from plasmid (pBACT2.0, pBACT5.0)
Description: The vector used is pBACT2.0 (FIG. 6, SEQ ID NO: 713).
(§1) The vector used is pBACT5.0 (FIG. 5, SEQ ID NO: 712).

bacteriocin B17 = experiment: Resistance to B17 conferred by plasmid-expressed immunity gene (selection on plates containing B17); format: cell-based, BL21(DE3)
Description: We have separated genes from B17 immunity structures and cloned these into vectors behind an inducible promoter (Ptac).
We have separated the genes from B17 immunity structures and cloned them into vectors behind an inducible promoter (Ptac).
We inserted the B17 McbG immunity structure gene and cloned the latter into vectors behind the weak constitutive promoter (P24). A second construct was generated with a P24 LacO hybrid promoter which is an inducible promoter repressed in the presence of lad and active in presence of IPTG.
The BL21(DE3) strain was transformed with vector pMcbG1.0 or pMcbG1.1 (see FIG. 3 or 4). After transformation, transformants were selected on plates containing B17. Isolated colonies were re-grown and the plasmid they contained was analyzed by gel electrophoresis after treatment with relevant restriction enzymes.

[2] = tested on: pathogenic Gram-positive and Gram-negative bacteria; conditions: cited from earlier work
ColV = experiment: Resistance to ColV conferred by plasmid-expressed immunity gene (vector selection marker); format: cell-based; conditions: gene expressed from plasmid pBACT5.0
Description: as §1

botrycidin AJ1316
antifungal activities [1]: antifungal activities

Enterococcus faecalis peptide: Enterococcus faecalis peptide, SEQ ID NO: 1 (WLPPAGLLGRCGRWFRPWLLWLQSGAQYKWLGNLFGLGPK; listed as Enterococcus faecalis)
neutralizing activity against Candida species (Candida species): neutralizing activity

B1: C-terminal part of MccE: C-terminal portion of MccE, SEQ ID NO: 701 (amino acid SEQ ID NO: 706) (protein)
chain: FRKYDVSLTPSGIKVNDEITLLYPALKYAEELYLLINQNKINFIKSMAWPAFVNNISDSVSFIEQSMIDNQNEKALILFIKYKTKIAGVVSFNIIDHANKTAYIGYWLGANFQGKGIVTNAINKLIQEYGDSGVIKRFVIKCIVDNKKSNATALRCGFTLEGVLQKAEILNGVSYDQNIYSKVIG
modifications: C-terminal part of MccE protein
resistance to bacteriocin C7 (bacteriocin C7): sufficient to confer resistance; also recorded: give resistance | resistance to bacteriocin C7 (bacteriocin C7; listed as truncated MccE): give resistance

B2: McbE/F: pumps of the B17 immunity structure, construct pSyn2-McbE/F SEQ ID NO: 703 (protein, UniProt P05528 1-241; P05529 1-247, looked up)
Protein McbE: MVTLKMAIIFLMEQIRTPFSLIWTIMSPTVLFFFLHFNEIELHYGDTAWLGKQISWFVGYISFSVVLFNYCLYLVGRRESGFIATFVHNMDGRLLFIRSQLIASLIMSILYVFFFILVVLTGFQASPDYQIVMIILKSIYINAFMMVSLTFMASFRVTFQTASTIYSVLITVCMVSGIVSLKYNEGIVYWINQVNPIAIYSTILQSDQELSLMTIFFYSIMLIISIISALTFKTEPVWSSQ
Protein McbF: MTIPLLEINSLSFSYKVNLPPVFNNLSLKIEQGELIGLLGENPAGKTTLFNLIRGGVSNYEGTLKRNFSGGELVSLPQVINLSGTLRNEEVLDLICCFNKLTKKQAWTDVNHKWNDNFFIRYDKIRRKRTYTVSYGEKRWLIISLMVTLCKNARLFLLDEPTVGIDIQYRMMLWELINKITADGKTVFFSTHIFDELTRDKIPFYMLSKNSINRYSDMSDFIQSNNETTQKRHLLKKLWEQETDTWI
toxicity of expression to the strain (bacteriocin B17; pSyn2-McbE/F under Ptac): toxic

B3: Ent35-MccV: hybrid bacteriocin: N-terminal glycine, Enterocin CRL35, three-glycine linker, C-terminal Microcin V, SEQ ID NO: 3 (protein)
chain: GKYYGNGVSCNKKGCSVDWGRAIGIIGNNSAANLATGGAAGWKSGGGASGRDIAMAIGTLSGQFVAGGIGAAAGGVAGGAIYDYASTHKPNPAMSPSGLGGTIKQKPEGIPSEAWNYAAGRLCNWSPNNLSDVCL
modifications: Hybrid bacteriocin Ent35-MccV
antimicrobial activity [2]: displays antimicrobial activity

B4: McbG: immunity to the bacteriocin B17, nucleic acid SEQ ID NO: 699 (protein, listed as Escherichia coli)
chain: MDIIEKRITKRHLSESELSGVNYYNCIFERIQLDNFNFRDCEFEKCRFVNCSIKNLKLNFFKLIDCEFKDCLLQGVNAADIMFPCTFSLVNCDLRFVDFISLRLQKSIFLSCRFRDCLFEETDLRKSDFTGSEFNNTEFRHSDLSHCDFSMTEGLDINPEINRILSIKIPQEAGLKILKRMGVVVGG
modifications: gene (1)..(564) McbG gene
resistance to B17 (bacteriocin B17; gene expressed from plasmid, Ptac not induced, weak P24 promoter or pBACT2.0): sufficient to give the phenotype of resistance

B5: MccE: immunity to the bacteriocin C7, nucleic acid SEQ ID NO: 700 (protein, listed as Escherichia coli)
chain: MAQKITPSKIVKHARELIIKGIESGDNSFVIFDVDGALERLEHYRCQLKSFFPNSSIAYSYKSNNLAQWCQIISGKGLYAEVCSVDEMNLAKRDGFNRIVFDGPLKKTSELLKAIEIGALIEVDNIDECKRLNELCKLHKLTCRIHLRLSHYYDDNLSRFGLSESEAINLLEMLISKSEYLILDGFHLHVGSNLPNAEKICKAVIQYHELILRYMPDDGTLNLGSGIPADSFSASSDNPTPCPEVFFSSIYDTIKNCFGTVCDKWNYIFEPGRHLVEDFGYFIGKVISTKNRYGVKVAQTNIGINWIPSIRNWDHSFTLFHNHNHISDDKSDEYIIAGFNCFECDCLFPSVILPSNLSDYLFSVRGCGAYDMQTGNQWTRNLYAVYTITNDVVNISRIHRRELDFRKYDVSLTPSGIKVNDEITLLYPALKYAEELYLLINQNKINFIKSMAWPAFVNNISDSVSFIEQSMIDNQNEKALILFIKYKTKIAGVVSFNIIDHANKTAYIGYWLGANFQGKGIVTNAINKLIQEYGDSGVIKRFVIKCIVDNKKSNATALRCGFTLEGVLQKAEILNGVSYDQNIYSKVIG
modifications: gene (1)..(1770) MccE gene
resistance to bacteriocin C7 (bacteriocin C7): give resistance

B6: Cvi: immunity gene giving resistance to ColV, SEQ ID NO: 709 (protein, listed as Escherichia coli)
chain: MDRKRTKLELLFAFIINATAIYIALAIYDCVFRGKDFLSMHTFCFSALMSAICYFVGDNYYSISDKIKRRSYENSDSK
modifications: gene (1)..(237) Cvi
resistance to ColV (ColV): give resistance
